Measurements taken from patent US20250145711A1 (Janssen / Centocor, published 2025).

T1: Human CD79b, endogenous on diffuse large B-cell lymphoma cell lines (human, UniProt P40259 29-229)
T1 construct: On HBL-1, OCI-LY10 and Carnaval cells, which also carry CD20; also called Igβ
T1 sequence: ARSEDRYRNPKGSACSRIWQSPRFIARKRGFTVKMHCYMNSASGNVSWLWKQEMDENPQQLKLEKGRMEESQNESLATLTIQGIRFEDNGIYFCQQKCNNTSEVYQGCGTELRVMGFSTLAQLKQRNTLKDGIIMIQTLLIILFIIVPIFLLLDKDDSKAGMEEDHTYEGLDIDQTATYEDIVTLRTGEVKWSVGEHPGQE

T2: Human CD79b long isoform, recombinant extracellular domain (CD9W8.001) (human, UniProt P40259 29-159)
T2 construct: extracellular domain; also called hu CD79b long
T2 sequence (looked up): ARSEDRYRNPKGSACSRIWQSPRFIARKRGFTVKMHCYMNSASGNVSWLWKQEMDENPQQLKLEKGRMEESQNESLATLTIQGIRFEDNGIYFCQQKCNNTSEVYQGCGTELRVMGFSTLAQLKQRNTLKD

T3: Human CD79b short isoform, recombinant extracellular domain (CD9W7.001) (human, UniProt P40259 29-159)
T3 chain: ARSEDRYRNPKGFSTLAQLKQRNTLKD


Key:
[1] = biological target: T1, Human CD79b, endogenous on diffuse …; assay: flow cytometry on OCI-LY10 cells (endogenous CD79b and CD20; the trispecific also has a CD20 arm)
[2] = biological target: T2, Human CD79b long isoform, recombinant …; assay: SPR Biacore 8K, antibody captured by anti-human Fc, CD79b in solution, 25 C, 1:1 Langmuir
Procedure: (§1) General Protocol for SPR Affinity Assessment: Affinity assessment of the bispecific and trispecific constructs against human CD79b were measured using recombinantly expressed extracellular domain of CD79b short and long isoforms (CD9W7.001 and CD9W8.001, respectively) by Surface Plasmon Resonance (SPR) using a Biacore 8 k SPR system (Biacore) at 25° C. in HBSP+ buffer. Cross-reactivity of the same antibody panel was also assessed against cyno and mouse antigens (CD9W1.001 and CD9W105.001, respectively). Briefly, a C1 sensor chip was immobilized with anti-human Fc (target immobilization levels of >400 RU) using vendor recommended amino coupling protocol. The test antibodies were captured through immobilized anti-Fc and was followed by the injection of different CD79b constructs at different concentration series (human CD79b short and long isoforms: 30 nM-0.37 nM at 3-fold dilutions; cyno and mouse CD79b: 3000 nM-37 nM at 3-fold dilutions). The association and dissociation phases were measured for 2 or 3 minutes and 30 minutes, respectively.
(§2) The raw binding sensorgrams were processed using Biacore Insight software (Biacore) by double-referencing and the processed sensorgrams were analyzed for cross-reactivity and fitted to a 1:1 Langmuir model to obtain on-rates, off-rates and affinities.

[3] = biological target: T3, Human CD79b short isoform, recombinant …; assay: as above
Procedure: as §1, §2

[4] = biological target: T1, Human CD79b, endogenous on diffuse …; assay: flow cytometry on HBL-1 cells (endogenous CD79b and CD20; the trispecific also has a CD20 arm)
[5] = biological target: T1, Human CD79b, endogenous on diffuse …; assay: flow cytometry on Carnaval cells (endogenous CD79b and CD20; the trispecific also has a CD20 arm)
[6] = biological target: T1, Human CD79b, endogenous on diffuse …; assay: flow cytometry on HBL-1 cells (endogenous CD79b), 1 h 37 C, anti-human IgG AF647
Procedure: (§3) All cells were washed with BD stain buffer (BD Biosciences; Cat #554657), centrifuged at 1200 RPM for 3 minutes, with supernatant discarded. […] All cells were washed with BD stain buffer (BD Biosciences; Cat #554657), centrifuged at 1200 RPM for 3 mins, with supernatant discarded. Cells were analyzed using Intellicyt (Sartorius) flow cytometer and mean fluorescent intensity (MFI) was generated using Forcyt software (Sartorius). MFI was graphed and EC50 values generated using GraphPad PRISM v.8. Dose response curves were generated by transforming the x axis values using the formula […]. Data was then graphed using non-linear regression curve fit analysis “log(agonist) vs. response-variable slope (four parameter)”.

[7] = biological target: T1, Human CD79b, endogenous on diffuse …; assay: flow cytometry on Carnaval cells (endogenous CD79b), 1 h 37 C, anti-human IgG AF647
Procedure: as §3

[8] = biological target: T1, Human CD79b, endogenous on diffuse …; assay: flow cytometry on Carnaval cells; bispecific control in the trispecific table
Procedure: as §3

[9] = biological target: T1, Human CD79b, endogenous on diffuse …; assay: flow cytometry on HBL-1 cells; bispecific control in the trispecific table
Procedure: as §3

Row | EC50 [1] | Kd [2] | Kd [3] | EC50 [4] | EC50 [5] | EC50 [6] | EC50 [7] | EC50 [8] | EC50 [9] | Binder
1 | 2 nM | 0.04 nM | 0.27 nM | 8 nM | 6 nM | – | – | – | – | C923B99 (other, Trispecific IgG1 antibody; HC1/LC form the CD79b Fab; HC2 is CD3 scFv-Fc-linker-CD20 scFv; also called CD79bxCD20xCD3 trispecific; CD9B643 / CD3B2030-N106A-scFv-LH-C20B22) heavy: QVQLQESGPGLVKPSQTLSLTCTVSGVSISNYYWSWIRQPPGKGLEWIGRISPSGRTNYNPSLKSRVTMSLDASKNQFSLKLSSVTAADTAVYYCARGEYSGTYSYSFDIWGQGTMVTVSSASTKGPSVFPLAPSSKSTSGGTAALGCLVKDYFPEPVTVSWNSGALTSGVHTFPAVLQSSGLYSLSSVVTVPSSSLGTQTYICNVNHKPSNTKVDKKVEPKSCDKTHTCPPCPAPEAAGGPSVFLFPPKPKDTLMISRTPEVTCVVVSVSHEDPEVKFNWYVDGVEVHNAKTKPREEQYNSTYRVVSVLTVLHQDWLNGKEYKCKVSNKALPAPIEKTISKAKGQPREPQVYTLPPSREEMTKNQVSLSCAVKGFYPSDIAVEWESNGQPENNYKTTPPVLDSDGSFFLVSKLTVDKSRWQQGNVFSCSVMHEALHNRFTQKSLSLSPGK light: DIQMTQSPSSLSASVGDRVTITCRSSQSLFDSDDGNTYLDWFQQKPGQSPKLLIQTLSYRASGVPSRFSGSGSGTDFTLTISSLQPEDFATYYCMQRMEFPLTFGGGTKVEIKRTVAAPSVFIFPPSDEQLKSGTASVVCLLNNFYPREAKVQWKVDNALQSGNSQESVTEQDSKDSTYSLSSTLTLSKADYEKHKVYACEVTHQGLSSPVTKSFNRGEC EIVLTQSPATLSASPGERVTLSCSASSSVSYMNWYQQKPGQAPRRWIYDSSKLASGVPARFSGSGSGRDYTLTISSLEPEDFAVYYCQQWSRNPPTFGGGTKVEIKGGSEGKSSGSGSESKSTGGSQVQLVQSGAEVKKPGSSVKVSCKASGYTFTRSTMHWVKQAPGQGLEWIGYINPSSAYTNYNQKFQGRVTLTADKSTSTAYMELSSLRSEDTAVYYCASPQVHYDYAGFPYWGQGTLVTVSSEPKSSDKTHTCPPCPAPEAAGGPSVFLFPPKPKDTLMISRTPEVTCVVVSVSHEDPEVKFNWYVDGVEVHNAKTKPREEQYNSTYRVVSVLTVLHQDWLNGKEYKCKVSNKALPAPIEKTISKAKGQPREPQVYTLPPSREEMTKNQVSLWCLVKGFYPSDIAVEWESNGQPENNYKTTPPVLDSDGSFFLYSKLTVDKSRWQQGNVFSCSVMHEALHNHYTQKSLSLSPGKGGSEGKSSGSGSESKSTGGSAIQLTQSPSSLSASVGDRVTITCRASSSVSYIHWFQQKPGKAPKPLIYATSNLASGVPSRFSGSGSGTDFTLTISSLQPEDFATYYCQQWTSNPPTFGQGTKLEIKGGSEGKSSGSGSESKSTGGSQVQLVQSGAEVKKPGSSVKVSCKASGYTFTSYNMHWVRQAPGQGLEWMGAIYPGNGDTSYAQKFQGRVTITADKSTSTAYMELSSLRSEDTAVYYCARSTYYGGDWYFNVWGQGTLVTVSS
2 | – | 0.022 nM | 0.58 nM | – | – | 97 nM | 44 nM | 44 nM | 97 nM | 79C3B646 (bispecific antibody, human IgG1, lambda, L234A L235A, IgG1; HC1/LC form the CD79b Fab arm; HC2 is the CD3 scFv-Fc arm; Knobs-in-holes; also called CD79bxCD3 bsAb; CD9B330-N31S x CD3B2030-N106A) heavy: QVQLQQSGPGLVKPSQTLSLTCAISGDSVSSNSATWNWIRQSPSRGLEWLGRTYYRSKWYNDYTVSVKSRITINPDTSKNQFSLQLNSVTPEDTAVYYCTRVDIAFDYWGQGTLVTVSSASTKGPSVFPLAPSSKSTSGGTAALGCLVKDYFPEPVTVSWNSGALTSGVHTFPAVLQSSGLYSLSSVVTVPSSSLGTQTYICNVNHKPSNTKVDKKVEPKSCDKTHTCPPCPAPEAAGGPSVFLFPPKPKDTLMISRTPEVTCVVVSVSHEDPEVKFNWYVDGVEVHNAKTKPREEQYNSTYRVVSVLTVLHQDWLNGKEYKCKVSNKALPAPIEKTISKAKGQPREPQVYTLPPSREEMTKNQVSLSCAVKGFYPSDIAVEWESNGQPENNYKTTPPVLDSDGSFFLVSKLTVDKSRWQQGNVFSCSVMHEALHNRFTQKSLSLSPGK light: QTVVTQPPSVSEAPRQRVTISCSGSSSNIGNHGVNWYQQLPGKAPKLLIYNDDLLPSGVSDRFSGSTSGTSGSLAISGLQSEDEADYYCAAWDDSLNGVVFGGGTKLTVLGQPKAAPSVTLFPPSSEELQANKATLVCLISDFYPGAVTVAWKADSSPVKAGVETTTPSKQSNNKYAASSYLSLTPEQWKSHRSYSCQVTHEGSTVEKTVAPTECS EIVLTQSPATLSASPGERVTLSCSASSSVSYMNWYQQKPGQAPRRWIYDSSKLASGVPARFSGSGSGRDYTLTISSLEPEDFAVYYCQQWSRNPPTFGGGTKVEIKGGSEGKSSGSGSESKSTGGSQVQLVQSGAEVKKPGSSVKVSCKASGYTFTRSTMHWVKQAPGQGLEWIGYINPSSAYTNYNQKFQGRVTLTADKSTSTAYMELSSLRSEDTAVYYCASPQVHYDYAGFPYWGQGTLVTVSSEPKSSDKTHTCPPCPAPEAAGGPSVFLFPPKPKDTLMISRTPEVTCVVVSVSHEDPEVKFNWYVDGVEVHNAKTKPREEQYNSTYRVVSVLTVLHQDWLNGKEYKCKVSNKALPAPIEKTISKAKGQPREPQVYTLPPSREEMTKNQVSLWCLVKGFYPSDIAVEWESNGQPENNYKTTPPVLDSDGSFFLYSKLTVDKSRWQQGNVFSCSVMHEALHNHYTQKSLSLSPGK
3 | 66 nM | 0.023 nM | 0.39 nM | 52 nM | 23 nM | – | – | – | – | C923B74 (other, Trispecific IgG1 antibody; HC1/LC form the CD79b Fab; HC2 is CD3 scFv-Fc-linker-CD20 scFv; also called CD79bxCD20xCD3 trispecific; CD9B330-N31S / CD3B2030-N106A-scFv-LH-C20B22) heavy: QVQLQQSGPGLVKPSQTLSLTCAISGDSVSSNSATWNWIRQSPSRGLEWLGRTYYRSKWYNDYTVSVKSRITINPDTSKNQFSLQLNSVTPEDTAVYYCTRVDIAFDYWGQGTLVTVSSASTKGPSVFPLAPSSKSTSGGTAALGCLVKDYFPEPVTVSWNSGALTSGVHTFPAVLQSSGLYSLSSVVTVPSSSLGTQTYICNVNHKPSNTKVDKKVEPKSCDKTHTCPPCPAPEAAGGPSVFLFPPKPKDTLMISRTPEVTCVVVSVSHEDPEVKFNWYVDGVEVHNAKTKPREEQYNSTYRVVSVLTVLHQDWLNGKEYKCKVSNKALPAPIEKTISKAKGQPREPQVYTLPPSREEMTKNQVSLSCAVKGFYPSDIAVEWESNGQPENNYKTTPPVLDSDGSFFLVSKLTVDKSRWQQGNVFSCSVMHEALHNRFTQKSLSLSPGK light: QTVVTQPPSVSEAPRQRVTISCSGSSSNIGNHGVNWYQQLPGKAPKLLIYNDDLLPSGVSDRFSGSTSGTSGSLAISGLQSEDEADYYCAAWDDSLNGVVFGGGTKLTVLGQPKAAPSVTLFPPSSEELQANKATLVCLISDFYPGAVTVAWKADSSPVKAGVETTTPSKQSNNKYAASSYLSLTPEQWKSHRSYSCQVTHEGSTVEKTVAPTECS EIVLTQSPATLSASPGERVTLSCSASSSVSYMNWYQQKPGQAPRRWIYDSSKLASGVPARFSGSGSGRDYTLTISSLEPEDFAVYYCQQWSRNPPTFGGGTKVEIKGGSEGKSSGSGSESKSTGGSQVQLVQSGAEVKKPGSSVKVSCKASGYTFTRSTMHWVKQAPGQGLEWIGYINPSSAYTNYNQKFQGRVTLTADKSTSTAYMELSSLRSEDTAVYYCASPQVHYDYAGFPYWGQGTLVTVSSEPKSSDKTHTCPPCPAPEAAGGPSVFLFPPKPKDTLMISRTPEVTCVVVSVSHEDPEVKFNWYVDGVEVHNAKTKPREEQYNSTYRVVSVLTVLHQDWLNGKEYKCKVSNKALPAPIEKTISKAKGQPREPQVYTLPPSREEMTKNQVSLWCLVKGFYPSDIAVEWESNGQPENNYKTTPPVLDSDGSFFLYSKLTVDKSRWQQGNVFSCSVMHEALHNHYTQKSLSLSPGKGGSEGKSSGSGSESKSTGGSAIQLTQSPSSLSASVGDRVTITCRASSSVSYIHWFQQKPGKAPKPLIYATSNLASGVPSRFSGSGSGTDFTLTISSLQPEDFATYYCQQWTSNPPTFGQGTKLEIKGGSEGKSSGSGSESKSTGGSQVQLVQSGAEVKKPGSSVKVSCKASGYTFTSYNMHWVRQAPGQGLEWMGAIYPGNGDTSYAQKFQGRVTITADKSTSTAYMELSSLRSEDTAVYYCARSTYYGGDWYFNVWGQGTLVTVSS
